Numbered stars: 1 amine (or outer) side, 2 acyl side, 3 side chain; on linkers, the order of the positions; unused ones are H or OH. Square brackets hold non-standard residues; d marks the D form. * marks the point of attachment. AzaAsn = aza-asparagine, NC(=O)CN(N[*:1])C(=O)[*:2]; (S,S)‑EPCOOEt = (S,S)-epoxide ethyl ester; CH:CH‑COOEt = CCOC(=O)/C=C/*; Suc = O=C(CCC(=O)[*:2])[*:1]; Cbz = O=C(OCc1ccccc1)*
Legend:
[1] = biological target: recombinant legumain (Homo sapiens (Human)) (UniProt Q99538); assay: cell-based or functional assay
human legumain = biological target: T1, human legumain (human, UniProt Q99538 19-323, limits assumed); assay: cell-based or functional assay
T1 sequence: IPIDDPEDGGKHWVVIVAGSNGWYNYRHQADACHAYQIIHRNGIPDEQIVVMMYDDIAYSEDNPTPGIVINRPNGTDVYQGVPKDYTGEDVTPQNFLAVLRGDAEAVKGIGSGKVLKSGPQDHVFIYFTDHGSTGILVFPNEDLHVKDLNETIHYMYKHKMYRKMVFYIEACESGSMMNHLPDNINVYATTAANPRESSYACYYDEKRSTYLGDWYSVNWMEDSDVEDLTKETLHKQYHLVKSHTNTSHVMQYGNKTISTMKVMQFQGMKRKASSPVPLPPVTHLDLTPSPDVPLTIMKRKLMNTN

recombinant legumain = biological target: T2, recombinant legumain (Homo sapiens (Human), UniProt Q99538 19-323, limits assumed); assay: cell-based or functional assay
T2 sequence: T1 sequence

progelatinase A, P08253 = biological target: T3, progelatinase A, P08253
T3 chain: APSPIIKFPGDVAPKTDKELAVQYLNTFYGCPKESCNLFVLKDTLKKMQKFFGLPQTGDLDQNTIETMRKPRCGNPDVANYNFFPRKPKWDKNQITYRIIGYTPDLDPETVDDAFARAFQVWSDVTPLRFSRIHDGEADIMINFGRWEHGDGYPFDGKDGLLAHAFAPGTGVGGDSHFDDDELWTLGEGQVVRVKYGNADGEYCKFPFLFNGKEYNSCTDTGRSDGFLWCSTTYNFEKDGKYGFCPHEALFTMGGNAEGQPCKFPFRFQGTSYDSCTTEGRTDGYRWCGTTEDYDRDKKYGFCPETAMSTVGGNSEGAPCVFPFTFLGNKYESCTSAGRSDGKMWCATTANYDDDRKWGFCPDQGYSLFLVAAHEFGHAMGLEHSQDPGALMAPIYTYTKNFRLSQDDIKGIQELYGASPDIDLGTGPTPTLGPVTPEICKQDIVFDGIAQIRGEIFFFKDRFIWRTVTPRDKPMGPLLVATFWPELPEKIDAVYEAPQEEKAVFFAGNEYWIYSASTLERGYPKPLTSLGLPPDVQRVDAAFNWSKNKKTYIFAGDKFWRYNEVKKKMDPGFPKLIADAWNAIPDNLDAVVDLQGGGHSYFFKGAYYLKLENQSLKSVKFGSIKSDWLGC

[2] = biological target: T4, αvβ3 integrin (added to the legumain activity assays), P06756
T4 chain 1: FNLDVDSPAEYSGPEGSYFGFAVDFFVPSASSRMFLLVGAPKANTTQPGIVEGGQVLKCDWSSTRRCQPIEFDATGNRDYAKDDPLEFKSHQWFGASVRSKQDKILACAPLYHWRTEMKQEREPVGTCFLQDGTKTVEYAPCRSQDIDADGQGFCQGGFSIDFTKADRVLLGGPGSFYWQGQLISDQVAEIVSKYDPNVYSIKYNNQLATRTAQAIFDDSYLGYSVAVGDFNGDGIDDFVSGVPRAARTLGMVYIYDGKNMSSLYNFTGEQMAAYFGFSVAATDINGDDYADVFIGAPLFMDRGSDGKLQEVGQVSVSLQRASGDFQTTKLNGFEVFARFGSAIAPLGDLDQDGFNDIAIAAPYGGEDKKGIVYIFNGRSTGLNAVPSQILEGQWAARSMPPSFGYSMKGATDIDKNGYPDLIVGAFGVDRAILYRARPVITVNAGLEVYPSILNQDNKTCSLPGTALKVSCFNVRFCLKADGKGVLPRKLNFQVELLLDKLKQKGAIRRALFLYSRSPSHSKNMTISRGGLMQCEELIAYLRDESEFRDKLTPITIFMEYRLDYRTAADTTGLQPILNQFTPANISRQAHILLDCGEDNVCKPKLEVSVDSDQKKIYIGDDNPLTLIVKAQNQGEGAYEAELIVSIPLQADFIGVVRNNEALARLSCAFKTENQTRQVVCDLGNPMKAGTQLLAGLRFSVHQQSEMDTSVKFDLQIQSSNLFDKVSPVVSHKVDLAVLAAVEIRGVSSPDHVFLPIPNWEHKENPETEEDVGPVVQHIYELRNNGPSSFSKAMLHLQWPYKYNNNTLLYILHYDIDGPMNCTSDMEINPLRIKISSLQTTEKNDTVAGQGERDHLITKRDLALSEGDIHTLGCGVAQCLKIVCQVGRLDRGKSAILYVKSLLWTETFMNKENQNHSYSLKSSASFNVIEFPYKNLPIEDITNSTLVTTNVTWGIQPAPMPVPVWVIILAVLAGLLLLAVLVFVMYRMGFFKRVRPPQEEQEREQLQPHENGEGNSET
T4 chain 2: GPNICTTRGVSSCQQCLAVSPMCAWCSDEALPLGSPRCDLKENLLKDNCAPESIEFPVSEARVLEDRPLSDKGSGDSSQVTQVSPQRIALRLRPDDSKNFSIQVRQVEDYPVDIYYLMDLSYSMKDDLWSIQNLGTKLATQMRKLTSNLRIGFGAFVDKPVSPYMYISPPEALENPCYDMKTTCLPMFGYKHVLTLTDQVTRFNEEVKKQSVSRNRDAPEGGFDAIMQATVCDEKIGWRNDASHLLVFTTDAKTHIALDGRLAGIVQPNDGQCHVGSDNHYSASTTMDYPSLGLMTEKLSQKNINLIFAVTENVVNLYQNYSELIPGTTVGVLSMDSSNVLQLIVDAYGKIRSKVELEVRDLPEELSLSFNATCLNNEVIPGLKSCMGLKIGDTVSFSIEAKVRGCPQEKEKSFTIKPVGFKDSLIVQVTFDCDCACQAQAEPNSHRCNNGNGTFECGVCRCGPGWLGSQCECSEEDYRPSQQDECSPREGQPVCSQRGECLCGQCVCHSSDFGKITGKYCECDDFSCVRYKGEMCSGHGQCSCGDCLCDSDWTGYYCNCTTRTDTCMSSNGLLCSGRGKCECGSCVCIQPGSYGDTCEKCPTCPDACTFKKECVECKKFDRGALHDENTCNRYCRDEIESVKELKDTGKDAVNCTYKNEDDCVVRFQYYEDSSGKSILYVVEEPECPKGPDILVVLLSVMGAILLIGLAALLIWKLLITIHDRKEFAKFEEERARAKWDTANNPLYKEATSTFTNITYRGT

caspase 9, P55211 = biological target: T5, caspase 9, P55211
T5 chain: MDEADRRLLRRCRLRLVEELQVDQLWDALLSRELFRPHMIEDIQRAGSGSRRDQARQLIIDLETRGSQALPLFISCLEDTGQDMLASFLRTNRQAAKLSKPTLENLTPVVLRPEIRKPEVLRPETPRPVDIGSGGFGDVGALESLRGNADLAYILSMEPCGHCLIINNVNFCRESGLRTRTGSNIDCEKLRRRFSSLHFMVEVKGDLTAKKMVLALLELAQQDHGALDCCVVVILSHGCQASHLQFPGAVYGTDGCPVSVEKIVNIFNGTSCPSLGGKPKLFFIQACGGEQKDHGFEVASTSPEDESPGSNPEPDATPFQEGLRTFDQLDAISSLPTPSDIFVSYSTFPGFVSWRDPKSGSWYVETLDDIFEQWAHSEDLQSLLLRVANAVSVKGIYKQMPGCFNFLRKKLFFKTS

Molecule: αvβ3 integrin (added to the legumain activity assays) (from UniProt P06756 31-1048; P05106 27-788) (receptor)
- pH of peak legumain activity in the legumain:αvβ3 complex [1]: 6 pH

Molecule: cystatin
- EC50 (µM) of LEG-3 for 50% cell death on Legumain+ 293 cells in the presence of cystatin (human legumain): 64.4 µM

B1: AEPI-4 (Cbz-Ala-Ala-AzaAsn-CH=CH-CON(CH3)Bzl) (peptide)
peptide: Cbz-Ala-Ala-[AzaAsn]-{CH:CH‑CON(CH3)Bzl}
- IC50, amidolytic activity assay of recombinant legumain with fluorescent substrate (recombinant legumain): 158 nM

B2: AEPI-3 (Cbz-Ala-Ala-AzaAsn-CH=CH-COOBzl) (peptide)
peptide: Cbz-Ala-Ala-[AzaAsn]-{CH:CH‑COOBzl}
- IC50, amidolytic activity assay of recombinant legumain with fluorescent substrate (recombinant legumain): 34 nM

B3: AEPI-2 (Cbz-Ala-Ala-AzaAsn-CH=CH-COOEt) (peptide)
peptide: Cbz-Ala-Ala-[AzaAsn]-{CH:CH‑COOEt}
SMILES: CCOC(=O)/C=C/C(=O)N(CC(N)=O)NC(=O)[C@H](C)NC(=O)[C@H](C)NC(=O)OCc1ccccc1
- IC50, amidolytic activity assay of recombinant legumain with fluorescent substrate (recombinant legumain): ~21 nM

B4: recombinant legumain (protein)
chain: T1 sequence
- cathepsin B activity toward small peptidyl substrates (cathepsin B, P07858): cathepsin B activity toward small peptidyl substrates is not affected
- zymogram: cleavage of MMP2 by legumain and legumain:αvβ3 (progelatinase A, P08253): legumain not only removes the pro-MMP2 propeptide but also cleaves MMP2 between its proteolytic domain and its integrin binding hemopexin domain
- legumain amidolytic activity (hydrolysis of a substrate to a fluorescent product) [2]: binding of legumain to αvβ3 integrin can increase legumain activity nearly 100 fold
- cleavage of caspase 9 and loss of caspase 9 activity (caspase 9, P55211): legumain efficiently inactivates caspase 9 and depletes the cell of pro-caspase 9

B5: AEPI-1 (Cbz-Ala-Ala-AzaAsn-(S,S)-EPCOOEt) (peptide)
peptide: Cbz-Ala-Ala-[AzaAsn]-{(S,S)‑EPCOOEt}
- IC50, amidolytic activity assay of recombinant legumain with fluorescent substrate (recombinant legumain): ~20 nM

B6: LEG-3 (succinyl-Ala-Ala-Asn-Leu-doxorubicin) (peptide)
peptide: Suc-AANL-doxorubicin
modifications: not fully specified (residue 1); printed as succinyl-Ala-Ala-Asn-Leu-doxorubicin
- EC50 (µM), amount required for 50% cell death, Legumain+ 293 cells (human legumain): 3.2 µM
